Measurements: patent US20220119513A1 (ZOETIS SERVICES, published 2022)
Positions count from the first letter of the chain named.

B1: fel04H09-17 (antibody, V domains shown)
VH: QVLLVQSGAEVRRPGASVKIFCKASGYSFTSSWMNWLRQAPAQGFEWMGQIYPGDGDTNYNGKFKGRLTLTADTSTDTAYMELSSLRSADTAVYYCARHYDGSTDYWGHGTIVTVSS
VL: AITMTQSPGSLAGSPGQQVTMNCRASENIYSNLAWYQQKPGQHPKLLIYAATNLADGVPDRFSGSGSGTDFTLTISNLQAEDVASYYCQHFWGTPYTFGGGT
B2: fel04H09-24 (antibody, V domains shown)
VH: B1 VH with R13K, A42E, F45L, D77N, V93M, H109Q, T111A, I112L
VL: DIVMTQTPLSLPVTPGEPASISCRASENIYSNLAWYLQKPGQSPRLLIYAATNLADGVPSRFSGSGSGTDFTLRISSVEADDVGVYYCQHFWGTPYTFGQGT
B3: Can04H09 VH3/VL4 (antibody, V domains shown)
VH: EVQLVQSAAEVKKPGASVKVSCKTSGYTFTSSWMNWVQQAPGAGLDWMGQIYPGDGDTNYNGKFKGRVTLTADTSTSTAYMELSSLRAEDTAVYYCARHYDGSTDYWGQGTLVTVSS
VL: EIVMTQSPASLSLSQGEKVTITCRASENIYSNLAWYQQRPGQAPKLLIYAATNLADGVPSRFSGSGSGTDFSLTISSLEPEDVAVYYCQHFWGTPYTFGQGTK
B4: Can04H09 VH3/VL3 (antibody, V domains shown)
VH: B3 VH
VL: B3 VL with G16E, R39K, L73F
B5: Can04H09 VH1/VL3 (antibody, V domains shown)
VH: B3 VH with A8G, T30I, Q38R, E89G, T91I
VL: B3 VL with G16E, R39K, L73F
B6: Can04H09 VH2/VL4 (antibody, V domains shown)
VH: B3 VH with T28S, A43K, T74K, A88S, T91A
VL: B3 VL
B7: Can04H09 VH3/VL1 (antibody, V domains shown)
VH: B3 VH
VL: DIVMTQNPLSLSVSPGETASISCRASENIYSNLAWFRQKPGQSPQRLIYAATNLADGVPDRFSGSGSGTDFTLRISRVEADDTGVYYCQHFWGTPYTFGQGTK
B8: Can04H09 VH1/VL1 (antibody, V domains shown)
VH: B3 VH with A8G, T30I, Q38R, E89G, T91I
VL: B7 VL
B9: Can04H09 VH2/VL1 (antibody, V domains shown)
VH: B3 VH with T28S, A43K, T74K, A88S, T91A
VL: B7 VL
B10: H1chimK (antibody)
heavy: EVQLVQSGAEVKKPGASVKVSCKTSGYTFITYWMNWVRQAPGAGLDWMGQIFPASGSTNYNEMFEGRVTLTADTSTSTAYMELSSLRAGDIAVYYCARGDGNYALDAMDYWGQGTLVTASTTAPSVFPLAPSCGSTSGSTVALACLVSGYFPEPVTVSWNSGSLTSGVHTFPSVLQSSGLYSLSSMVTVPSSRWPSETFTCNVAHPASKTKVDKPVPKRENGRVPRPPDCPKCPAPEAAGAPSVFIFPPKPKDTLLIARTPEVTCVVVDLDPEDPEVQISWFVDGKQMQTAKTQPREEQFNGTYRVVSVLPIGHQDWLKGKQFTCKVNNKALPSPIERTISKARGQAHQPSVYVLPPSREELSKNTVSLTCLIKDFFPPDIDVEWQSNGQQEPESKYRTTPPQLDEDGSYFLYSKLSVDKSRWQRGDTFICAVMHEALHNHYTQESLSHSPGK
light: DIVLTQTPASLAVSLGQRATISCRASESVDSYGNSFMHWYQQKSGQPPKLLIYLASNLESGVPARFSGSGSRTDFTLTIDPVEADDAATYYCQQNNEDPLTFGAGTKRNDAQPAVYLFQPSPDQLHTGSASVVCLLNSFYPKDINVKWKVDGVIQDTGIQESVTEQDKDSTYSLSSTLTMSSTEYLSHELYSCEITHKSLPSTLIKSFQRSEC
notes: also called canHcLb-VH1/chiHcLb-VL
B11: H2chimK (antibody)
heavy: B10 heavy with G8A, T28S, I30T, R38Q, A43K, A72V, G89E, I91A
light: B10 light
notes: also called canHcLb-VH2/chiHcLb-VL
B12: felHclb_heterochimera-11 (antibody, V domains shown)
VH: QVLLVQSGAEVRRPGASVKIFCKASGYIFITYYMHWLRQAPAQGFEWMGSIFPASGSTSYAQKFQGRLTLTADTSTDTAYMELSSLRSADTAVYYCARGDGNYALDAMDYWGHGTIVTVSS
VL: DIVLTQTPASLAVSLGQRATISCRASESVDSYGNSFMHWYQQKSGQPPKLLIYLASNLESGVPARFSGSGSRTDFTLTIDPVEADDAATYYCQQNNEDPLTFGAGTK
notes: hetero-pairing; also called felHclbH636/mHclbVL
B13: mouse SL501 (antibody, V domains shown)
VH: EVQLVESGGGVVQPGRSLRLSCAASGFTFSSYGMHWVRQAPGKELEWVAVISYDGSIKYYADSVKGRFTISRDNSKNTLYLQMNSLRAEDTAVYYCARTGEYSGYDTDPQYSWGQGTTVTVSS
VL: EIVLTQSPSSLSASVGDRVTITCRASQGIGDDLGWYQQKPGKAPILLIYGTSTLQSGVPSRFSGSGSGTDFTLTINSLQPEDFATYYCLQDSNYPLTFGGGTK
notes: called engineered mouse antibody and also precursor human antibody from phage display; also called mouse-SL501-VH/mouse-SL501-VL; SL501 (murine)
B14: Can-SL501_VH1/CanSL501-VL-hybrid (antibody, V domains shown)
VH: EVQLVESGGDLVKPGGSLRLSCVASGFTFSSYGMHWVRQAPGKGLQWVAVISYDGSIKYYTDAVKGRFTISRDNARNTVYLQMNSLRAEDTAVYYCAKTGEYSGYDTDPQYSWGQGTLVTVSS
VL: B13 VL with K42Q, I45K, T72S, L73F, N76S, Q79E, F83V, T85V
notes: constant regions not restated
B15: Can-SL501_VH2/Chimera-SL501-VL (antibody, V domains shown)
VH: B14 VH with T61A, R76K, V79L, V93M
VL: B13 VL
notes: also called heterochimeric SL501
B16: Can-SL501-VH1/Chimera-SL501-VL (antibody, V domains shown)
VH: B14 VH
VL: B13 VL
notes: as for B15
B17: Chimera-SL501-VH/CanSL501-VL-hybrid (antibody, V domains shown)
VH: B13 VH
VL: B13 VL with K42Q, I45K, T72S, L73F, N76S, Q79E, F83V, T85V
notes: constant regions not restated
B18: Chimera-SL501-VH/Can-SL501-VL1 (antibody, V domains shown)
VH: B13 VH
VL: EIVMTQSPASLSLSQEEKVTITCRASQGIGDDLGWYQQKPGQAPKLLIYGTSTLQSGVPSRFSGSGSGTDFSFTISSLEPEDVAVYYCLQDSNYPLTFGAGTK
notes: as for B15
B19: Chimera-SL501-VH/Can-SL501-VL2 (antibody, V domains shown)
VH: B13 VH
VL: EIVMTQSPGSLAGSAGESVSINCRASQGIGDDLGWYQQKPGERPKLLIYGTSTLQSGVPARFSSSGSGTDFTLTINNLQAEDVGDYYCLQDSNYPLTFGAGTK
notes: as for B15

biological target: TGFβ1 (R&D Systems); assay: cell-based or functional assay

Binder | CMVIC pSmad-3, IC50 [nM] | CRFK pSmad-3, IC50 [nM]
B1 | 0.89 | 0.73
B2 |  | 0.5

biological target: T1, TGFβ3 (R&D Systems) (Homo sapiens (Human), UniProt P10600 301-412, Active TGFβ3 is a disulfide-linked homodimer of this chain; one copy is given.); assay: cell-based or functional assay
T1 sequence: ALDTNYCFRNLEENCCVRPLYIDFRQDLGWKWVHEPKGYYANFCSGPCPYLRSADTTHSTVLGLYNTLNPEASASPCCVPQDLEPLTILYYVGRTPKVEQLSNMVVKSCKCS

Binder | CMVIC pSmad-3, IC50 [nM] | CRFK pSmad-3, IC50 [nM]
B1 | 39.9 | 370
B2 |  | 30.1

biological target: TGFβ1 (R&D Systems); assay: cell-based or functional assay; remark: another data set of the same source

Binder | CMVIC pSmad-3, IC50 [nM]
B3 | 0.74
B4 | 1.18
B5 | 0.66
B6 | 0.84

biological target: T1, TGFβ3 (R&D Systems); assay: cell-based or functional assay; remark: another data set of the same source

Binder | CMVIC pSmad-3, IC50 [nM]
B3 | 52.8
B4 | 72.8
B5 | 467
B6 | 69.5

biological target: T2, canine TGFβ3 (canine, UniProt A0A8I3S1P1 346-457); assay: SPR, TGFβ on chip
T2 sequence: T1 sequence
Description: (§1) To avoid affinity differences associated with differential surface preparation that can occur when immobilizing antibodies to surfaces, TGFβ1, TGFβ2, and TGFβ3 (R&D Systems) were directly conjugated to the individual surface. Immobilization was obtained by amine coupling […] using N-hydroxysuccinimide (NHS)/1-Ethyl-3-(3-dimethylaminopropyl) carbodiimide (EDC) chemistry. Chips were quenched with ethanolamine and the affinity with which all candidate mAbs bound to the immobilized TGFβ was evaluated. All curves were fit to a 1:1 model. Affinities <10⁻¹¹ are below the lower limit of quantitation of detection for the instrument.

Binder | Kd [nM]
B3 | 6.06
B4 | 9.08
B5 | 6.52
B6 | 6.03

biological target: T3, canine TGFβ2 (canine, UniProt A0A8I3PZZ6 331-442); assay: SPR, TGFβ on chip
T3 sequence: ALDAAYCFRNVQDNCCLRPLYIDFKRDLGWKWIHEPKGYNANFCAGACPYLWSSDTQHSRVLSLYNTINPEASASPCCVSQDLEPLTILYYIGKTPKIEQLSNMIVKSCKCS
Description: as §1

Binder | Kd [nM]
B3 | 32.1
B4 | 48.8
B5 | 32
B6 | 32.9

biological target: canine TGFβ1 (canine, UniProt P54831 279-390, limits assumed); assay: SPR, TGFβ on chip
Sequence (P54831 279-390 limits assumed): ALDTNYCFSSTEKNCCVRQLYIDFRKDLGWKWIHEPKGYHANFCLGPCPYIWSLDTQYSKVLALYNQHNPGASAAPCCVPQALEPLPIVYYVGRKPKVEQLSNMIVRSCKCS
Description: as §1

Binder | Kd [nM]
B3 | 1.38
B7 | 3980
B8 | 284
B9 | 2190
B4 | 2.79
B5 | 2.43
B6 | 1.42

biological target: T4, TGFβ1 (R&D Systems); assay: SPR full titration
T4 construct: also called TGFB1
T4 sequence (P01137 279-390): as the sequence (P54831 279-390 limits assumed) above

Binder | Kd [nM]
B10 | 6.52
B11 | 16.3

biological target: T1, TGFβ3 (R&D Systems); assay: SPR full titration

Binder | Kd [nM]
B10 | 1.03
B11 | 2.26

biological target: T5, TGFβ2 (R&D Systems); assay: SPR full titration
T5 construct: also called TGFB2
T5 sequence (P61812 303-414, species assumed, looked up): T3 sequence

Binder | Kd [nM]
B10 | 0.683
B11 | 6.62

biological target: T1, TGFβ3 (R&D Systems); assay: SPR

Binder | binding result
B12 | no binding

biological target: T4, TGFβ1 (R&D Systems); assay: SPR full titration; remark: another data set of the same source

Binder | Kd [nM]
B13 | 0.00705
B14 | 4.01
B15 | 1090
B16 | 1100
B17 | 0.0428
B18 | 60.8
B19 | 0.000192

biological target: T2, canine TGFβ3; assay: SPR

Binder | binding result
B7 | no binding
B8 | no binding
B9 | no binding

biological target: T3, canine TGFβ2; assay: SPR

Binder | binding result
B7 | no binding
B8 | no binding
B9 | no binding
